Measured values: article PMC4894983

What follows are substances tested on CsrA-Strep (Campylobacter jejuni NCTC11168) (assay: EMSA).

Substance | Kd
flaA WT leader | 0.05 µM
flgI leader | > 0.35 µM
flaG leader | > 0.35 µM
flaB leader | > 0.35 µM

These substances were tested against T1, CsrA-Strep (Campylobacter jejuni NCTC11168) (UniProt Q0P9F1) (assay: EMSA).
T1 sequence: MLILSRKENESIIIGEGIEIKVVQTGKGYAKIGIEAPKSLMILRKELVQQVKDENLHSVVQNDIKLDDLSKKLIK

Substance | binding
GGAUUAUAACUAAGAUCAAGGAGGCAGAAAUGAUCAAUCCUAUACAACAAAGUUAUGUGGCAAAUACCGCAUUAAAUACAAAUAGAAUAGAUAAAG [flgM mRNA] | binds
GGAAAUUAAAAUUUUAAAAAGGAAGUUAAAAUGUCAAAACCAUUAAAUGAAGAGAUUUUUGUUGAAUUUAAAAGUGAUCUAGCUGAAAGAAAAAAUGAAGUUUUGCUUCAAGUUUUAGA [Cj0040 mRNA] | binds
